The values below come from US20200291135A1 (INSPIRNA, published 2020).

Assay [1] concerns the target T1, human Axl extracellular domain conjugated to an IgG Fc domain (human, UniProt P30530 26-451).
T1 construct: extracellular domain; also called hAxl; human Ax1; not shown: IgG Fc domain
T1 sequence (looked up): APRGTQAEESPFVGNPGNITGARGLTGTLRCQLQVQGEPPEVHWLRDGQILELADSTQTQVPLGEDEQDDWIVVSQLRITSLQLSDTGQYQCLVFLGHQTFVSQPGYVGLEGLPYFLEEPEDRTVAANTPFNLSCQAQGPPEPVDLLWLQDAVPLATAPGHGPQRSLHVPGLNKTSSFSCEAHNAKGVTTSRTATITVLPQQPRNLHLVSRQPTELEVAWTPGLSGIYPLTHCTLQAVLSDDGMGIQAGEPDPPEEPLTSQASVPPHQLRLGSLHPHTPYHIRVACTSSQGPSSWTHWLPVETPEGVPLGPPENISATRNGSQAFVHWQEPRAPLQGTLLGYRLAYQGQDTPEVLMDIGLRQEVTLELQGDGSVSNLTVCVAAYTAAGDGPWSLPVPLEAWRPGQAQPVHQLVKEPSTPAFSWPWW
Briefly: competition ELISA: soluble hAxl-Fc (varied) equilibrated with z10, free z10 caught on plate-coated hMER. The procedure: Plates were washed three times with PBS 0.1% Tween and blocked with 3% non-fat dry skim milk in PBS for 2 h.
During the saturation step, dilutions of the antigen hAxl (RnD Systems, 154-AL-100), hTyro3 (RnD Systems, 859-DK-100) or mMER (RnD Systems, 591-MR-100)] were prepared at 50 nM as the highest concentration, and serially diluted 1:1 to 0.098 nM in PBS. […] Then, the saturated plate was washed three times with PBS 0.1% Tween and the antigen-antibody mixture was added to the wells in duplicate and incubated for 1 h at room temperature. The plate was then washed three times with PBS 0.1% Tween and incubated with anti-human Alkaline Phosphatase antibody (Sigma, SAB 3701248) at a dilution of 1:3000 in PBS for 1 h at room temperature. After washing three times with PBS 0.1% Tween, 100 uL of Alkaline Phosphatase Yellow (pNPP) liquid substrate system (Sigma, P7998) was added in each well and incubated for 70 min at room temperature. Plates were read at 405 nm and at 570 nm, to correct plate inconsistencies, using Glomax Discover System from Promega The absorbance was plotted as a function of antigen concentration and the Kd was calculated using GraphPad Prism 7.0c.

Assay [2] deals with T2, human MERTK expressed on cells (SKMEL5 melanoma cells; in vitro differentiated M2 macrophages) (human, UniProt Q12866 21-999).
T2 construct: Endogenous MERTK of human cells; also called surface MERTK
T2 sequence: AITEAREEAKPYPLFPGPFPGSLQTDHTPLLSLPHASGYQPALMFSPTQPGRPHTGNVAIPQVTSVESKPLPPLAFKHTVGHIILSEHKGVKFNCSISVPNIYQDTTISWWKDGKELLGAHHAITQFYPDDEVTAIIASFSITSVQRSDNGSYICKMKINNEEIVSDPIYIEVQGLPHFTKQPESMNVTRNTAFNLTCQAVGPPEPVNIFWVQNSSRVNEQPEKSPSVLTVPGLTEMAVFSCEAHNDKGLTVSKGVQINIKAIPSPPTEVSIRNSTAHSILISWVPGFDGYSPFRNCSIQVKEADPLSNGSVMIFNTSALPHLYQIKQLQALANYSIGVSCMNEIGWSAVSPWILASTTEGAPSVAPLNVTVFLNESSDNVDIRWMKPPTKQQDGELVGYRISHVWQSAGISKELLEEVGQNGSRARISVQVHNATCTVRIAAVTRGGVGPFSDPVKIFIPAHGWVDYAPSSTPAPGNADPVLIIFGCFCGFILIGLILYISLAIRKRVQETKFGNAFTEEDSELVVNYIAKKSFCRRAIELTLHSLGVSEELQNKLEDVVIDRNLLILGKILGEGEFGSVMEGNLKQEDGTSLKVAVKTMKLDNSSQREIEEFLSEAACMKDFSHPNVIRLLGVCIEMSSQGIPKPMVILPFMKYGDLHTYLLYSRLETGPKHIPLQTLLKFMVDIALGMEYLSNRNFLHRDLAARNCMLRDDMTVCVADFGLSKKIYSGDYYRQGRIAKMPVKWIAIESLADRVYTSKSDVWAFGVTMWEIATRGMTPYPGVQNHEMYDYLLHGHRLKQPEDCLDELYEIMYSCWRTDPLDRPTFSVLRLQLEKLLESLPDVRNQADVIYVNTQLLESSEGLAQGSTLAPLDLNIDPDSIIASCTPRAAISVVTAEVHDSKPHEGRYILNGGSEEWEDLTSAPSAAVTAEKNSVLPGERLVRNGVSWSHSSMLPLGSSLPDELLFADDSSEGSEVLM
Briefly: flow cytometry, APC-labeled z10 on MERTK-expressing SKMEL5 melanoma cells. The procedure: SKMEL5 cells were harvested with trypsin, washed twice with PBS and strained through a 70 µm filter. 50,000 cells were resuspended in 60 μL FACS buffer (2% BSA, 10 mM EDTA, 25 mM HEPES, 0.1% sodium azide in Ca/Mg-free PBS) containing 10% human AB serum (Sigma, H4522). […] The APC signals from live single cells were analyzed in FlowJo and the MFIs were plotted with GraphPad Prism. Single color control samples were used to create a compensation matrix.
(In general: Flow cytometry measures light scatter and fluorescence of single cells or particles in a stream.)

B1: z10 antibody (antibody, human IgG1, kappa, V domains shown)
VH: QVQLVQSGAEVKKPGASVKVSCKASGYTFTNYGMNWVRQAPGQGLEWMGWINTYTGEPTYADDFKGRVTFTTDTSTSTAYMELRSLRSDDMAVYYCARKSTVVSRYFDVWGQGTTVTVSS
VL: DIQMTQSPSFLSASVGDRVTITCKASQDVGDAVTWYQQKPGKAPKLLIYWASTRHTGVPDRFSGSGSGTDFTLTISSLQPEDFATYYCQQYRSYPLTFGQGTKLEIKR
notes: also called MERTK (z10) antibody
As a reminder, the EC50 is the concentration at which the effect is half-maximal. High values mean weaker potency, low ones greater potency. Turning to B1, the binding result in assay [1] is on record as “no binding (tested: 50 nM)”. Further, a half-maximal response in assay [2] (EC50) required 6.7 nM.
